For one data set, the target named is TRPP3-mCherry (human) (UniProt Q9P0L9). Nature of the data set: single-molecule photobleaching.
The data set “SEC-MALS” concerns the molecule itself. Nature of the data set: SEC-MALS.
Data set [1] deals with the molecule itself. The data set can be described thus: single-molecule photobleaching.
The next data set deals with PKD1L3-mCherry (mouse, UniProt Q2EG98 21-2151). Nature of the data set: single-molecule photobleaching.
Sequence of PKD1L3-mCherry (Q2EG98 21-2151): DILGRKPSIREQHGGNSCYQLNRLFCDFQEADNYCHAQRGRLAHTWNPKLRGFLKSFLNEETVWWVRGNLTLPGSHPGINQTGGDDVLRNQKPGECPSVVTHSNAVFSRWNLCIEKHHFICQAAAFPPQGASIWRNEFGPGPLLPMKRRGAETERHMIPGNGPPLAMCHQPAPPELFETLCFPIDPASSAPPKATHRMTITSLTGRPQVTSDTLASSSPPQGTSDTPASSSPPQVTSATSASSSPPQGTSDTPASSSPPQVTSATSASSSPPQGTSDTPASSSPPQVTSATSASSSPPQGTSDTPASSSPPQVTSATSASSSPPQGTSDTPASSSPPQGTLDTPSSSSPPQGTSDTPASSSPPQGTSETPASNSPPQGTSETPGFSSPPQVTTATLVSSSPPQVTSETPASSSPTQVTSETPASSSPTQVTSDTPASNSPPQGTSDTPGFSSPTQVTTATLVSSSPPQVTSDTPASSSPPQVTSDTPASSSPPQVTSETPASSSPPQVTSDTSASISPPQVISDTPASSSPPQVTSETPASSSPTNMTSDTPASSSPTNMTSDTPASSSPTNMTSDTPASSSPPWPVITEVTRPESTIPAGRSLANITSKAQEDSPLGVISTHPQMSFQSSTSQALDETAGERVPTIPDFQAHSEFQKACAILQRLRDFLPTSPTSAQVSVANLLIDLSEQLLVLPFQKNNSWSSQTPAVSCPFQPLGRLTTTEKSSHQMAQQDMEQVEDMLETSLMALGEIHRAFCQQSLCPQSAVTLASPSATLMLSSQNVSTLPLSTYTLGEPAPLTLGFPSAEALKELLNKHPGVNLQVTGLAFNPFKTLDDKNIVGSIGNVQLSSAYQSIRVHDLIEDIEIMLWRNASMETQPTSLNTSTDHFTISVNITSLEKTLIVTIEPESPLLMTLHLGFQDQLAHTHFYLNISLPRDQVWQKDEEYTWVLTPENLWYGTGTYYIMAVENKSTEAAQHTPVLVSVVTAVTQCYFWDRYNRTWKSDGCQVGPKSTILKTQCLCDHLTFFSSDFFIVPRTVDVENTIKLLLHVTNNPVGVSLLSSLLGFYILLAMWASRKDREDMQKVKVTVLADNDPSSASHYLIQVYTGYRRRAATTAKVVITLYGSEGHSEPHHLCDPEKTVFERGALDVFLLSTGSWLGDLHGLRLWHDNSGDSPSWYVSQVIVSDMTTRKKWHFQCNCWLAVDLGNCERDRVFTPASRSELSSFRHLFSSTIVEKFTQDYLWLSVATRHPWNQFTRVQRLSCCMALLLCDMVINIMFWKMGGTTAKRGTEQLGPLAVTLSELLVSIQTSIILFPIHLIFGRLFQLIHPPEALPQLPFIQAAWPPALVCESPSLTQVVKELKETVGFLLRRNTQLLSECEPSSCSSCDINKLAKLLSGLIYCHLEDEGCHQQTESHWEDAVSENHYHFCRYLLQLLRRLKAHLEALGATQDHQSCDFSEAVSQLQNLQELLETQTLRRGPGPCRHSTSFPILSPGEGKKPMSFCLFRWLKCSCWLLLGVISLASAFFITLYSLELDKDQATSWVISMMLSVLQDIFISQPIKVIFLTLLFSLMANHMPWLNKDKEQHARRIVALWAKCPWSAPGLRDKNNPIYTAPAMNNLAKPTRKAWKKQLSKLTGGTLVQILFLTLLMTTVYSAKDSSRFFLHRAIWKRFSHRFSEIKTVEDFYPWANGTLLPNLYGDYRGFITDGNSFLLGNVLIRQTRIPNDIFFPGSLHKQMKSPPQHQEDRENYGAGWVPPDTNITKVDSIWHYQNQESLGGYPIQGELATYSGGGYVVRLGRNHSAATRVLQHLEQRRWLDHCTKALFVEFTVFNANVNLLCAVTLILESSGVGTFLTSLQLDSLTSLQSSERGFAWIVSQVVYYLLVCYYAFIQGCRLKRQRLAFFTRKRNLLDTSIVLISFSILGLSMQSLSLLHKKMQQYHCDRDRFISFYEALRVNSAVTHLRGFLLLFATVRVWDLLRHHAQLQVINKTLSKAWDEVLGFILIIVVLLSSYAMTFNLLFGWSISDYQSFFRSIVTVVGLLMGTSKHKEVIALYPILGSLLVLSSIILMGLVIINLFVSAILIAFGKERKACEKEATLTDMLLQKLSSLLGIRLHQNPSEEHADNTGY

Regarding PKD1L3-EGFP, Q2EG98 21-2151, the stoichiometry N in the data set with TRPP3-mCherry (human) came out at 1.

B1: MBP-TRPP3_CT (domain or fragment)
chain: KEELAGQKDELQLSDLLKQGYNKTLLRLRLRKERVSDVQKVLQGGEQEIQFEDFTNTLRELGHAEHEITELTATFTKFDRDGNRILDEKEQEKMRQDLEEERVALNTEIEKLGRSIVSSPQGKSGPEAARAGGWVSGEEFYMLTRRVLQLETVLEGVVSQIDAVGSKLKMLERKGWLAPSPGVKEQAIWKHPQPAPAVTPDPWGVQGGQESEVPYKREEEALEERRLSRGEIPTLQRS
Take B1: the “stoichiometry N” value in “SEC-MALS” was found to be 3.

B2: TRPP3-EGFP (natural protein)
chain: MNAVGSPEGQELQKLGSGAWDNPAYSGPPSPHGTLRVCTISSTGPLQPQPKKPEDEPQETAYRTQVSSCCLHICQGIRGLWGTTLTENTAENRELYIKTTLRELLVYIVFLVDICLLTYGMTSSSAYYYTKVMSELFLHTPSDTGVSFQAISSMADFWDFAQGPLLDSLYWTKWYNNQSLGHGSHSFIYYENMLLGVPRLRQLKVRNDSCVVHEDFREDILSCYDVYSPDKEEQLPFGPFNGTAWTYHSQDELGGFSHWGRLTSYSGGGYYLDLPGSRQGSAEALRALQEGLWLDRGTRVVFIDFSVYNANINLFCVLRLVVEFPATGGAIPSWQIRTVKLIRYVSNWDFFIVGCEVIFCVFIFYYVVEEILELHIHRLRYLSSIWNILDLVVILLSIVAVGFHIFRTLEVNRLMGKLLQQPNTYADFEFLAFWQTQYNNMNAVNLFFAWIKIFKYISFNKTMTQLSSTLARCAKDILGFAVMFFIVFFAYAQLGYLLFGTQVENFSTFIKCIFTQFRIILGDFDYNAIDNANRILGPAYFVTYVFFVFFVLLNMFLAIINDTYSEVKEELAGQKDELQLSDLLKQGYNKTLLRLRLRKERVSDVQKVLQGGEQEIQFEDFTNTLRELGHAEHEITELTATFTKFDRDGNRILDEKEQEKMRQDLEEERVALNTEIEKLGRSIVSSPQGKSGPEAARAGGWVSGEEFYMLTRRVLQLETVLEGVVSQIDAVGSKLKMLERKGWLAPSPGVKEQAIWKHPQPAPAVTPDPWGVQGGQESEVPYKREEEALEERRLSRGEIPTLQRS
On to B2, for which the “stoichiometry N” value (in data set [1]; in the data set with PKD1L3-mCherry) was 3 throughout.

One may read the stoichiometry N as a count of units in the complex or per binding partner.

Source of the values: PMC3575195 (Nature communications, 2012).
